Laboratory results published in PMC11968938 (Scientific Reports, 2025).
Read-outs that look alike come from different tables or passages of the source.

Legend:
crystal structure [1] = target: the molecule itself; assay: crystal structure
crystal structure [2] = target: the molecule itself; assay: crystal structure; remark: listed apart in the source

B1: BBH37_(131-312) (domain or fragment, B. burgdorferi B31, UniProt O50692 131-312, looked up)
chain: FFPSTEEEKQADKAIKDIENLIGESGFPELIENVCSLKHEYTLIRSDFYDVITKIQNKKISLMKNSHNNRNKIRELVQLQNNLKIGDELDKIMGCIDTAEQEIRSAAFFFDEAKESLKEGIIKRLEKSKNRAASQLSKKALNRAEDALRCLENYSSKKGEAIGRRSFIKEVVEQAKNALSKS
modifications: Cys165 in a disulfide bond with Cys165 of the other protomer
stoichiometry N (crystal structure [1]): 2

B2: BBH37_(119-312) (domain or fragment, B. burgdorferi B31, UniProt O50692 119-312, looked up)
chain: EHNQKKEIKEEDFFPSTEEEKQADKAIKDIENLIGESGFPELIENVCSLKHEYTLIRSDFYDVITKIQNKKISLMKNSHNNRNKIRELVQLQNNLKIGDELDKIMGCIDTAEQEIRSAAFFFDEAKESLKEGIIKRLEKSKNRAASQLSKKALNRAEDALRCLENYSSKKGEAIGRRSFIKEVVEQAKNALSKS
modifications: Cys165 in a disulfide bond with Cys165 of the other protomer
stoichiometry N (crystal structure [2]): 2
